First the molecules themselves.
B1: POU domain, class 5, transcription factor 1, residues 134 to 212; numbered along this chain, Q01860 (parent)
chain: EESQDIKALQKELEQFAKLLKQKRITLGYTQADVGLTLGVLFGKVFSQTTICRFEALQLSFKNMCKLRPLLQKWVEEAD
B2: Histone-lysine N-methyltransferase SETD2, residues 2382 to 2430; numbered along this chain, Q9BYW2 (parent)
chain: SPPKPKTIVLPPNWKTARDPEGKIYYYHVITRQTQWDPPTWESPGDDAS

± gives the uncertainty stated by the source.

In the first data set the parent is B1. Kind of data set: abundance fitness (aPCA) (normalised: wild type 0, dead -1); higher = more abundant; growth selection in yeast, the domain comes from the species named. The note with it: Homo sapiens.
For the variant T26S, the abundance fitness came out at 0.329 ± 0.18.

For G43K, the abundance fitness was -0.516 ± 0.31.

As to A17R, the abundance fitness was -0.768 ± 0.32.

Take K62T: the abundance fitness is -0.055 ± 0.19.

With L27K, the abundance fitness was -0.31 ± 0.19.

As for Q31H, the abundance fitness is -0.108 ± 0.37.

Take Q31L: the abundance fitness was -0.093 ± 0.2.

As to L9C, the abundance fitness was -0.123 ± 0.13.

As for I25L, the abundance fitness came to 0.249 ± 0.16.

L57Y: the abundance fitness came to 0.129 ± 0.29.

Regarding L41V, the abundance fitness was -0.329 ± 0.17.

Consider D5E, for which the abundance fitness is -0.343 ± 0.42.

With D5V, the abundance fitness was -0.018 ± 0.41.

For the variant D5S, the abundance fitness is -0.191 ± 0.41.

For D33G, the abundance fitness was -0.283 ± 0.12.

As for T49K, the abundance fitness amounted to 0.235 ± 0.12.

For P69V, the abundance fitness is -0.414 ± 0.099.

For the variant Q72T, the abundance fitness was -0.36 ± 0.17.

For the variant Q72Y, the abundance fitness was -0.582 ± 0.41.

In the case of L13V, the abundance fitness was -0.228 ± 0.14.

For E1Q, the abundance fitness came out at 0.066 ± 0.31.

Take E1V: the abundance fitness is -0.45 ± 0.16.

As to L70W, the abundance fitness was -0.442 ± 0.22.

Regarding L70P, the abundance fitness is -0.364 ± 0.22.

Consider T30R, for which the abundance fitness is -0.249 ± 0.078.

For T30S, the abundance fitness is 0.082 ± 0.085.

Regarding L20V, the abundance fitness was -0.056 ± 0.12.

Consider F61Q, for which the abundance fitness was -0.111 ± 0.17.

Regarding C65K, the abundance fitness is -0.271 ± 0.22.

Regarding K44Q, the abundance fitness is 0.018 ± 0.091.

R68D: the abundance fitness was -0.621 ± 0.4.

On to L19C, for which the abundance fitness was 0.164 ± 0.22.

Turning to Q58K, the abundance fitness was -0.035 ± 0.2.

As to L71P, the abundance fitness was -0.07 ± 0.17.

For A56V, the abundance fitness is -0.464 ± 0.14.

Regarding A56D, the abundance fitness worked out at 0.18 ± 0.13.

As for A56S, the abundance fitness was -0.002 ± 0.1.

With V75T, the abundance fitness was -0.299 ± 0.23.

Take A78P: the abundance fitness is -0.549 ± 0.23.

L36N: the abundance fitness came out at 0.144 ± 0.21.

For M64Y, the abundance fitness was -1.06 ± 0.5.

Take M64P: the abundance fitness is -0.604 ± 0.27.

With A32R, the abundance fitness was 0.066 ± 0.1.

In the case of E12R, the abundance fitness is -0.07 ± 0.071.

For the variant E12K, the abundance fitness stood at 0.254 ± 0.12.

Consider G39V, for which the abundance fitness was -0.85 ± 0.27.

Regarding K7W, the abundance fitness is -0.173 ± 0.074.

With Y29S, the abundance fitness is -0.717 ± 0.21.

In the case of C52F, the abundance fitness was -0.343 ± 0.29.

For the variant L67M, the abundance fitness is -0.052 ± 0.16.

For the variant W74G, the abundance fitness was -0.158 ± 0.18.

E76K: the abundance fitness is -0.133 ± 0.14.

Regarding E76V, the abundance fitness is -0.434 ± 0.15.

In the next data set the parent is B2. The data set is described as above. Conditions: Homo sapiens.
Regarding P2W, the abundance fitness is -0.293 ± 0.094.

As for P2A, the abundance fitness came to 0.131 ± 0.068.

In the case of P2I, the abundance fitness was determined as 0.712 ± 0.1.

Regarding P2Q, the abundance fitness was -0.007 ± 0.033.

P2H: the abundance fitness was found to be 0.314 ± 0.17.

For the variant P2N, the abundance fitness worked out at 0.461 ± 0.098.

Take P2R: the abundance fitness is -0.118 ± 0.062.

P2K: the abundance fitness was -0.087 ± 0.054.

Regarding P2G, the abundance fitness worked out at 0.045 ± 0.035.

Consider P2T, for which the abundance fitness was found to be 0.178 ± 0.034.

Regarding P2V, the abundance fitness was -0.065 ± 0.051.

P2E: the abundance fitness is -0.224 ± 0.082.

As to P2L, the abundance fitness turned out to be 0.317 ± 0.065.

As for P2S, the abundance fitness is 0.237 ± 0.058.

With P2M, the abundance fitness came out at 0.026 ± 0.1.

Regarding P2Y, the abundance fitness is 0.539 ± 0.1.

Consider P2F, for which the abundance fitness was determined as 0.031 ± 0.14.

Regarding P5N, the abundance fitness was found to be 0.294 ± 0.046.

On to P5F, for which the abundance fitness came to 0.133 ± 0.078.

For P5C, the abundance fitness was -0.396 ± 0.079.

Take P5G: the abundance fitness came out at 0.118 ± 0.033.

P5E: the abundance fitness worked out at 0.057 ± 0.035.

As to P5Y, the abundance fitness was -0.066 ± 0.098.

As for P5T, the abundance fitness worked out at 0.211 ± 0.045.

For P5A, the abundance fitness was determined as 0.102 ± 0.058.

For the variant P5R, the abundance fitness is -0.006 ± 0.035.

For P5S, the abundance fitness turned out to be 0.163 ± 0.044.

For P5M, the abundance fitness came out at 0.199 ± 0.065.

Regarding P5Q, the abundance fitness is 0.007 ± 0.085.

For P5V, the abundance fitness worked out at 0.162 ± 0.034.

As to P5W, the abundance fitness was -0.63 ± 0.12.

As to P5H, the abundance fitness is -0.17 ± 0.13.

For the variant P5K, the abundance fitness amounted to 0.159 ± 0.092.

Regarding P5D, the abundance fitness was found to be 0.133 ± 0.082.

With P5L, the abundance fitness stood at 0.125 ± 0.034.

Regarding P5I, the abundance fitness was 0.077 ± 0.035.

In the case of K4T, the abundance fitness was -0.275 ± 0.057.

K4S: the abundance fitness was 0.007 ± 0.037.

Regarding K4C, the abundance fitness was -0.564 ± 0.13.

As for K4M, the abundance fitness was -0.051 ± 0.076.

For the variant K4Q, the abundance fitness is -0.541 ± 0.13.

K4N: the abundance fitness was -0.144 ± 0.091.

On to K4E, for which the abundance fitness is -0.908 ± 0.12.

In the case of K4W, the abundance fitness is -0.798 ± 0.081.

Regarding K4Y, the abundance fitness was -0.046 ± 0.086.

Take K4H: the abundance fitness was -0.221 ± 0.059.

On to K4R, for which the abundance fitness is -0.532 ± 0.057.

With K4P, the abundance fitness is -0.386 ± 0.1.

Consider K4A, for which the abundance fitness was -0.836 ± 0.058.

Consider K4G, for which the abundance fitness is -0.97 ± 0.074.

In the case of K4L, the abundance fitness was -0.293 ± 0.034.

On to K4V, for which the abundance fitness was -0.573 ± 0.086.

Consider K4F, for which the abundance fitness is -0.41 ± 0.12.

On to K4I, for which the abundance fitness was -0.154 ± 0.074.

Turning to K4D, the abundance fitness was -0.927 ± 0.14.

Turning to S1C, the abundance fitness was found to be 0.007 ± 0.08.

In the case of S1A, the abundance fitness was -0.597 ± 0.25.

In the case of S1F, the abundance fitness came out at 0.246 ± 0.088.

With S1N, the abundance fitness is 0.442 ± 0.15.

Consider S1Y, for which the abundance fitness was -0.521 ± 0.28.

S1V: the abundance fitness is -0.252 ± 0.14.

Take S1E: the abundance fitness is -0.534 ± 0.32.

Turning to P3C, the abundance fitness was -0.508 ± 0.33.

As for P3G, the abundance fitness turned out to be 0.129 ± 0.055.

Take P3K: the abundance fitness is 0.325 ± 0.034.

As for P3F, the abundance fitness is 0.197 ± 0.12.

Take P3A: the abundance fitness was -0.191 ± 0.076.

As for P3N, the abundance fitness was found to be 0.585 ± 0.097.

For the variant P3M, the abundance fitness worked out at 0.369 ± 0.1.

P3Q: the abundance fitness turned out to be 0.262 ± 0.04.

Consider P3T, for which the abundance fitness is 0.155 ± 0.075.

For the variant P3D, the abundance fitness turned out to be 0.371 ± 0.12.

Regarding P3L, the abundance fitness came to 0.105 ± 0.068.

As for P3I, the abundance fitness amounted to 0.115 ± 0.17.

With P3Y, the abundance fitness came to 0.335 ± 0.051.

Turning to P3V, the abundance fitness came to 0.444 ± 0.066.

On to P3R, for which the abundance fitness is 0.274 ± 0.054.

With P3S, the abundance fitness came out at 0.281 ± 0.049.

As for P3W, the abundance fitness came to 0.064 ± 0.068.

For the variant P3E, the abundance fitness worked out at 0.408 ± 0.082.

For the variant P3H, the abundance fitness worked out at 0.126 ± 0.12.

With T7N, the abundance fitness is 0.127 ± 0.099.

For the variant T7E, the abundance fitness was -0.045 ± 0.048.

For the variant T7R, the abundance fitness was determined as 0.094 ± 0.045.

Take T7C: the abundance fitness was -0.062 ± 0.037.

As to T7G, the abundance fitness was 0.138 ± 0.033.

With T7I, the abundance fitness was -0.212 ± 0.15.

On to T7M, for which the abundance fitness is 0.026 ± 0.035.

As for T7F, the abundance fitness is 0.278 ± 0.094.

Take T7Q: the abundance fitness amounted to 0.013 ± 0.089.

On to T7L, for which the abundance fitness is -0.214 ± 0.035.

As to T7D, the abundance fitness is -0.134 ± 0.079.

In the case of T7A, the abundance fitness is 0.028 ± 0.031.

With T7S, the abundance fitness was determined as 0.105 ± 0.039.

On to T7V, for which the abundance fitness is -0.148 ± 0.057.

On to T7P, for which the abundance fitness was -0.375 ± 0.066.

On to T7H, for which the abundance fitness is 0.116 ± 0.12.

In the case of K6M, the abundance fitness was 0.018 ± 0.048.

Regarding K6Q, the abundance fitness was 0.07 ± 0.034.

In the case of K6F, the abundance fitness was -0.121 ± 0.05.

Take K6L: the abundance fitness is -0.339 ± 0.041.

As for K6G, the abundance fitness was 0.037 ± 0.053.

Consider K6S, for which the abundance fitness stood at 0.103 ± 0.059.

Turning to K6D, the abundance fitness is -0.074 ± 0.14.

In the case of K6W, the abundance fitness was -0.393 ± 0.097.

Take K6I: the abundance fitness was -0.037 ± 0.077.

K6P: the abundance fitness was -0.35 ± 0.1.

On to K6C, for which the abundance fitness is -0.303 ± 0.091.

Turning to K6E, the abundance fitness is -0.19 ± 0.062.

For the variant K6Y, the abundance fitness is -0.227 ± 0.1.

With K6T, the abundance fitness is -0.148 ± 0.073.

Take K6R: the abundance fitness was -0.046 ± 0.032.

For K6A, the abundance fitness was -0.032 ± 0.05.

On to K6N, for which the abundance fitness came out at 0.018 ± 0.085.
